# Legend:
# Type in all cases: biochemical, Mycoplana bullata
# [1] = substrate: CC(=O)NCCCCNCCCN; experiment: Enzyme activity on acetylpolyamine substrates, partially purified product (substrate specificity, optimum pH/temperature, Km); conditions: other: pH 7.0, Lineweaver-Burk plot
# Procedure: (§1) Activity of the present enzyme (partially purified products) is measured according to the following procedure. That is, 0.1 ml of an enzyme solution is added to a reagent solution consisting of 1.5 ml of 0.1 M phosphate buffer (pH 7.0), 0.05 ml of 50 mM acetylpolyamine, 0.4 U of putrescine oxidase (when acetylputrescine, acetylcadaverine or acetylspermidine is used as substrate) or polyamine oxidase (when acetylspermidine or acetylspermine is used as substrate), 0.5 ml of 2.4 mM 4-aminoantipyrine, 0.5 ml of 42 mM phenol and 20 U of peroxidase. The mixture is incubated at 37° C., and the absorbance of quinoneimine pigment formed at 500 nm is measured.
# (§2) In terms of the enzyme activity, the amount of enzyme that can hydrolyze 1 μmole of a substrate in one minute is defined as one unit (1 U).
# (§3) The relative activities of acetylpolyamine amidohydrolases against various type of acetylpolyamine, defining the activities against acetylputrescine as 100 under a condition of pH 7.0, are as shown in Table 1 below.
# (§4) Enzyme activity was measured at different pH levels ranging from 6 to 10 by using bis-Tris propane buffer solutions. The optimum pH was 9 for acetylputrescine and acetylcadaverine, and 8 for N^1 -acetylspermidine, N^8 -acetylspermidine and acetylspermine, as shown in FIG. 1.
# (§5) The optimum working temperature for the present enzyme was about 50° C., when the relative activity was determined, using acetylputrescine as substrate, as shown in FIG. 4. The optimum temperatures for the other acetylpolyamine amidohydrolases were 30° to 40° C. This clearly distinguishes the present enzyme from the known enzymes.
# (§6) Km values of the present enzyme and the other known enzymes for various types of acetylpolyamine at pH 7.0 were determined from the Line weaver-Burk plot [refer to J. Am. Chem. Soc., 56, 658 (1934)].
# [2] = substrate: CC(=O)NCCCNCCCCN; experiment: as above; conditions: other: pH 7.0, Lineweaver-Burk plot
# Procedure: as §1, §2, §3, §4, §5, §6
# [3] = substrate: CC(=O)NCCCCCN; experiment: as above; conditions: other: pH 7.0, Lineweaver-Burk plot
# Procedure: as §1, §2, §3, §4, §5, §6
# [4] = substrate: CC(=O)NCCCCNCCCN; experiment: Enzyme activity on acetylpolyamine substrates, product purified to homogeneity (Method 2 / Method 3); conditions: other: pH 9.0, Lineweaver-Burk plot
# From the text: (§7) [Method 2] (Assay when acetylputrescine, acetylcadaverine, N^1 -acetylspermidine and N^8 -acetylspermidine are used as substrate:)
# (§8) The acetylpolyamine can be hydrolyzed by the acetylpolyamine amidohydrolase, as described in [Method 1], and the corresponding free polyamine thus formed is then oxidized by putrescine oxidase. Putrescine oxidase derived from Micrococcus rubens is known to have an activity upon putrescine, cadaverine and spermidine [Adachi, et al., Agric. Biol. Chem, 30, 1202 (1966)]. […] The actual analytical procedure is as described below.
# (§9) The above reagents, (b) through (h), were put in a cuvette (d: 1.0 cm) and the mixture was preincubated at 37° C. for 2 minutes. The substrate solution (a) was then added, and the resulting mixture was incubated at 37° C. Absorbance at 500 nm was measured over a period of 3 to 5 minutes, and the change in absorbance per minute (ΔODsample) was determined from the linear portion of the plotted curve. For control, the same procedure as above was carried out, using distilled water as reference.
# (§10) One unit of acetylpolyamine amidohydrolase is defined as its amount necessary to hydrolyze 1 μmole of acetylputrescine at 37° C. for one minute (or the amount necessary to form 0.5 μmole of quinoneimine pigment formed in the method for measuring the enzyme activity described above).
# (§11) [Method 3] (Assay when acetylspermine is used as substrate:)
# (§12) Acetylspermine is hydrolyzed by the action of acetylpolyamine amidohydrolase into free form of spermine. The free form of spermine can be oxidized by a polyamine oxidase derived from Aspergillus terreus to produce hydrogen peroxide. […] Thus, the enzyme activity can be measured by quantitative determination of the hydrogen peroxide according to the method described above. […]
# (§13) Reagents (b) through (d) given in item (1) were put in a test tube and the mixture was preincubated at 37° C. for 2 minutes. […] A sample solution (200 μl), taken from the eluate containing free form of spermine, was mixed in a cuvette with reagents (a) through (e) given in item (2) above, the mixture was incubated at 37° C. for 10 minutes, and the absorbance at 755 nm was measured. […]
# (§14) The concentration of free form of spermine in the reaction mixture can be determined from a calibration curve previously prepared on the basis of aqueous soluitons of free form of spermine with different concentrations. […]
# (§15) The activities upon acetylputrescine, acetylcadaverine, N^1 -acetylspermidine and N^8 -acetylspermidine were measured by [Method 2] in a phosphate buffer (pH 9.0) at a substrate concentration of 0.833 mM, and the activity upon acetyl-spermine was measured by [Method 3] under the same conditions. […] Km values, determined from the Lineweaver-Burk plot, are also listed in the same table. […]
# [5] = substrate: CC(=O)NCCCNCCCCN; experiment: as above; conditions: other: pH 9.0, Lineweaver-Burk plot
# From the text: as §7, §8, §9, §10, §11, §12, §13, §14, §15
# [6] = substrate: CC(=O)NCCCCN; experiment: as above; conditions: other: pH 9.0, Lineweaver-Burk plot
# From the text: as §7, §8, §9, §10, §11, §12, §13, §14, §15
# [7] = substrate: CC(=O)NCCCCCN; experiment: as above; conditions: other: pH 9.0, Lineweaver-Burk plot
# From the text: as §7, §8, §9, §10, §11, §12, §13, §14, §15
protein,measurement,setting,value
"acetylpolyamine amidohydrolase (the present enzyme, partially purified product) (Mycoplana ramosa) (protein, novel acetylpolyamine amidohydrolase of the present invention accumulated within the grown cells; made in house; host or cells: Mycoplana (natural producer; cells grown in culture)) MRVIFSEDHKLRNAKTELYGGELVPPFEAPFRAEWILAAVKEAGFDDVVAPARHGLETVLKVHDAGYLNFLETAWDRWKAAGYKGEAIATSFPVRRTSPRIPTDIEGQIGYYCNAAETAISPGTWEAALSSMASAIDGADLIAAGHKAAFSLCRPPGHHAGIDMFGGYCFINNAAVAAQRLLDKGAKKIAILDVDFHHGNGTQDIFYERGDVFFASLHGDPAEAFPHFLGYAEETGKGAGAGTTANYPMGRGTPYSVWGEALTDSLKRIAAFGAEAIVVSLGVDTFEQDPISFFKLTSPDYITMGRTIAASGVPLLVVMEGGYGVPEIGLNVANVLKGVAG",Km,[1],560 µM
same,Km,[2],270 µM
same,Km,[3],130 µM
"acetylpolyamine amidohydrolase (the present enzyme, product purified to homogeneity) (Mycoplana ramosa) (protein, novel acetylpolyamine amidohydrolase of the present invention accumulated within the grown cells; made in house; host or cells: Mycoplana (natural producer)) MRVIFSEDHKLRNAKTELYGGELVPPFEAPFRAEWILAAVKEAGFDDVVAPARHGLETVLKVHDAGYLNFLETAWDRWKAAGYKGEAIATSFPVRRTSPRIPTDIEGQIGYYCNAAETAISPGTWEAALSSMASAIDGADLIAAGHKAAFSLCRPPGHHAGIDMFGGYCFINNAAVAAQRLLDKGAKKIAILDVDFHHGNGTQDIFYERGDVFFASLHGDPAEAFPHFLGYAEETGKGAGAGTTANYPMGRGTPYSVWGEALTDSLKRIAAFGAEAIVVSLGVDTFEQDPISFFKLTSPDYITMGRTIAASGVPLLVVMEGGYGVPEIGLNVANVLKGVAG",Km,[4],310 µM
same,Km,[5],130 µM
same,Km,[6],220 µM
same,Km,[7],50 µM
